Assay results as given in patent US20110129457A1 (CURIS, published 2011).
Where a chain is given by its changes, count along the chain named. In names and notes the source's numbering stands.

T1: full length human Patched-1 on 293 cells (Ptch1-293 clone 10) (human, UniProt Q13635 1-1447)
T1 construct: whole, on cells; also called Ptch1 expressing cells; Ptch1-293 cells
T1 sequence (looked up): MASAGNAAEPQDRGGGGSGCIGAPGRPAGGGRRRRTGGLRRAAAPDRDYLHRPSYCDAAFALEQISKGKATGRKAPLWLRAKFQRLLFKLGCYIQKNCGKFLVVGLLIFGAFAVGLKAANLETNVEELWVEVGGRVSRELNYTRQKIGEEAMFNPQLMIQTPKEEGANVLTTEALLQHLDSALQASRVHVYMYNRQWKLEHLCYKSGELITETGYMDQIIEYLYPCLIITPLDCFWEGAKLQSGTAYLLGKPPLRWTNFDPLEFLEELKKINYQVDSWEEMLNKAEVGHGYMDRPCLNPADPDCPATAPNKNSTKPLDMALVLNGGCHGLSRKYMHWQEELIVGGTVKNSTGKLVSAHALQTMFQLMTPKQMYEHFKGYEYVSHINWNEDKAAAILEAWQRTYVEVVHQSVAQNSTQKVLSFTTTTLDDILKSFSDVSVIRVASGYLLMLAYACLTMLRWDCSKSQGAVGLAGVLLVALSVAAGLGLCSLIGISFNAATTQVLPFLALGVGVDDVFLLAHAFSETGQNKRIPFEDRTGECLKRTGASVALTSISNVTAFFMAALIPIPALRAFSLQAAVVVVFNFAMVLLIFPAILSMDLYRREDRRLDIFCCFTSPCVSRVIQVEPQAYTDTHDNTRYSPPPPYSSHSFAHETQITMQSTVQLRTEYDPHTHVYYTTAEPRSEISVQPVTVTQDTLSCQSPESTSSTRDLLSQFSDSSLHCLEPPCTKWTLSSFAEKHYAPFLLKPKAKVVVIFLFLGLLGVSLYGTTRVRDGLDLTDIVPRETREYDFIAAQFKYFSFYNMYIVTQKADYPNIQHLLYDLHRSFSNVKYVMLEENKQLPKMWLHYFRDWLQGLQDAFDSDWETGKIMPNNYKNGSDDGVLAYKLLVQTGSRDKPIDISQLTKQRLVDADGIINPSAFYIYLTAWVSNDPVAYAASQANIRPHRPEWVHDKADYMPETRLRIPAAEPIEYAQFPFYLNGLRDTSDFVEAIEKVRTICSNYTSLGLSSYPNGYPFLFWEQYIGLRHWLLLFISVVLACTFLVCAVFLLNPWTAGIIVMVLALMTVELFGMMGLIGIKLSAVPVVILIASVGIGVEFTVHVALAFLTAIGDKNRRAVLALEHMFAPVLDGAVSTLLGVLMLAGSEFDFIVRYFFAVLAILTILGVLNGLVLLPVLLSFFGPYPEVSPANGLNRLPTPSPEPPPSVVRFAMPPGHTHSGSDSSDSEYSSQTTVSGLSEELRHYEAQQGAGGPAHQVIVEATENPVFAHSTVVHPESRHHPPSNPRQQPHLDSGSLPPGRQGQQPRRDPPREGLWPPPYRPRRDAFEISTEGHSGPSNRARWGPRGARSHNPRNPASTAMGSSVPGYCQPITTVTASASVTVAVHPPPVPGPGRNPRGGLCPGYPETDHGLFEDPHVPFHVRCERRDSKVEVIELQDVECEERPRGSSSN

B1: Hhip1β12 (β-propeller-EGF1-EGF2, residues 193-667), C-terminal His6-tag (receptor)
chain: SNYLDQMEEYDKVEEISRKHKHNCFCIQEVVSGLRQPVGALHSGDGSQRLFILEKEGYVKILTPEGEIFKEPYLDIHKLVQSGIKGGDERGLLSLAFHPNYKKNGKLYVSYTTNQERWAIGPHDHILRVVEYTVSRKNPHQVDLRTARVFLEVAELHRKHLGGQLLFGPDGFLYIILGDGMITLDDMEEMDGLSDFTGSVLRLDVDTDMCNVPYSIPRSNPHFNSTNQPPEVFAHGLHDPGRCAVDRHPTDININLTILCSDSNGKNRSSARILQIIKGKDYESEPSLLEFKPFSNGPLVGGFVYRGCQSERLYGSYVFGDRNGNFLTLQQSPVTKQWQEKPLCLGTSGSCRGYFSGHILGFGEDELGEVYILSSSKSMTQTHNGKLYKIVDPKRPLMPEECRATVQPAQTLTSECSRLCRNGYCTPTGKCCCSPGWEGDFCRTAKCEPACRHGGVCVRPNKCLCKKGYLGPQCEHHHHHH
B2: Hhip1β12 D383A (receptor)
chain: B1 chain with D191A
B3: Hhip1β12 D383R (receptor)
chain: B1 chain with D191R
B4: Hip-L2 peptide (GDGMITLDDMEEMDGLSDFTG) of the competition ELISA (peptide)
peptide: GDGMITLDDMEEMDGLSDFTG
notes: also called Hhip1-L2 peptide; peptide derived from the Hhip1β12 L2 loop
B5: octyl-Ihh (octylated Ihh wildtype) (ligand)
chain: not shown
modifications: octylated (site not stated)
B6: octyl-T154I (octylated Ihh T154I) (ligand)
chain: not shown
modifications: octylated (site not stated)
B7: Ihh T154I (type A1 brachydactyly mutant) (ligand)
chain: not shown
B8: Hhip1β1 (β-propeller-EGF1, residues 193-637), C-terminal His6-tag (receptor)
chain: SNYLDQMEEYDKVEEISRKHKHNCFCIQEVVSGLRQPVGALHSGDGSQRLFILEKEGYVKILTPEGEIFKEPYLDIHKLVQSGIKGGDERGLLSLAFHPNYKKNGKLYVSYTTNQERWAIGPHDHILRVVEYTVSRKNPHQVDLRTARVFLEVAELHRKHLGGQLLFGPDGFLYIILGDGMITLDDMEEMDGLSDFTGSVLRLDVDTDMCNVPYSIPRSNPHFNSTNQPPEVFAHGLHDPGRCAVDRHPTDININLTILCSDSNGKNRSSARILQIIKGKDYESEPSLLEFKPFSNGPLVGGFVYRGCQSERLYGSYVFGDRNGNFLTLQQSPVTKQWQEKPLCLGTSGSCRGYFSGHILGFGEDELGEVYILSSSKSMTQTHNGKLYKIVDPKRPLMPEECRATVQPAQTLTSECSRLCRNGYCTPTGKCCCSPGWEGDFCRTAHHHHHH
B9: Human Dhh (residues 24-198), N-terminal His6-tag (ligand)
chain: not shown
notes: range 24-198; also called Desert Hedgehog
B10: Human Ihh (residues 29-202), N-terminal His6-tag (ligand)
chain: not shown
notes: range 29-202; also called His6-Ihh; Indian Hedgehog

Columns and labels:
[1] = molecular target: fully lipid-modified Shh secreted by human HT29 cells (human, UniProt Q15465 24-197, N-terminal palmitoyl and C-terminal cholesterol modifications); assay: cell-based or functional assay
[2] = molecular target: T2, Shh-Flag (human Shh residues 25-197 with C-terminal Flag-Tag) (human, UniProt Q15465 25-197); assay: competition ELISA: Hip-L2 peptide dilution with 800 nM Hhip protein on Shh-Flag captured by anti-Flag M2, anti-His-HRP detection
T2 construct: range 25-197; not shown: C-terminal Flag-Tag

[3] = molecular target: T1, full length human Patched-1 on 293 …; assay: FACS competition: 1 nM Shh649 with inhibitor on Ptch1 expressing cells
[4] = molecular target: B1; assay: competition ELISA: unlabeled Hh against 5 nM biotinylated-ShhN-Cys for immobilized Hhip1β12
[5] = molecular target: T1, full length human Patched-1 on 293 …; assay: FACS competition: unlabeled Ihh against 1 nM Shh649 for Ptch1-expressing 293 cells
[6] = molecular target: B1; assay: competition ELISA as in paragraph 570; the legend gives Ihh and Shh the other way round
[7] = molecular target: B1; assay: competition ELISA: unlabeled Ihh against 5 nM biotinylated ShhN-Cys for immobilized Hhip1β12

Binder: B1
- IC50, inhibition of Gli-luciferase activity in HT29/S12 co-culture [1]: 5 nM

Binder: B2
- IC50, Gli-luciferase co-culture assay [1]: ~10 nM
- fold of IC50 against wildtype Hipβ12, Gli-luciferase co-culture assay [1]: 2 fold

Binder: B3
- IC50, Gli-luciferase co-culture assay [1]: 57 nM
- fold change of IC50, Gli-luciferase co-culture assay [1]: ~13 fold

Binder: B4
- IC50 [2]: 150000 nM

Binder: B5
- IC50 [3]: 0.64 nM

Binder: B6
- IC50 [3]: 10 nM

Binder: B7
- IC50 [3]: 140 nM

Binder: B8
- IC50, inhibition of Gli-luciferase activity in HT29/S12 co-culture [1]: 20.3 nM
- fold of IC50 against Hhip1ECD, Gli-luciferase co-culture [1]: ~4 fold

Binder: B9
- IC50 [4]: 40 nM

Binder: B10
- IC50 [3]: 1.1 nM
- IC50 [4]: 87 nM
- IC50 (read off the curve) [5]: ~3 nM
- IC50 [6]: 53 nM
- IC50 (read off the curve) [7]: ~90 nM
